Paper PMC10357585

Substrate: Nc1nc2nc[nH]c2c(=O)[nH]1
Test: Initial rate studies of TcHGXPRT, GMP biosynthesis
Type: biochemical, Trypanosoma cruzi
Settings: other: variable substrate PRPP (1–78 μM) at fixed Gua levels; pH 8.3; 37.0 °C

B1: TcHGXPRT (Trypanosoma cruzi strain CL Brener) (protein)
chain: MISSQQAMVHVVSRNAEGVIVVDGKAYPMAEELVATESVIQRSIKAVAKQIADFYRPLSHRDTHGGGGVAPISDENPLIIISVLKGSYIFTADMVRYLGDYGLPHVVDFLRVASYRGTSSTNKMKLLAETQFKALRGKHVLILEDIVDSGKTLRYILDKVQREHQPATLKVCVLADKPGGRRVTMQPDFVCLTVPNKYVIGYGFEVNDRFRCFRHIFTLRPGEARRYPAHL
Km: 28 ± 3 µM | kcat: 0.44 ± 0.02 s⁻¹
